Source: US20160333110A1 (CHIOME BIOSCIENCE, published 2016)
Blank lines part the entries; values can stand above or below the binder they belong to.

Assays:
[1] = molecular target: T1, recombinant protein of the hTROP-2 extracellular region (human, UniProt P09758 27-263); assay: monovalent ELISA: antibody captured by anti-mouse IgG, hTROP-2 EC titrated in solution, detected with anti-His
T1 construct: produced with baculovirus, purified on Ni Sepharose; also called hTROP-2 EC; hTROP-2-EC-His; not shown: C-terminal myc-His tag from pcDNA4/myc-His A
T1 sequence: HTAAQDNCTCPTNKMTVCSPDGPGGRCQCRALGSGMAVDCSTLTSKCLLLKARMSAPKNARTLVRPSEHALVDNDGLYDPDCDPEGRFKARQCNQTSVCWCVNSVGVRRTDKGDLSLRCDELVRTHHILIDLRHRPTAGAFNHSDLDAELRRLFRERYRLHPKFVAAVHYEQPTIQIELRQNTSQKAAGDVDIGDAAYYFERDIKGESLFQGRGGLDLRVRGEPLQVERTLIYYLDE
Procedure: Thereafter, coating was carried out at 4° C. overnight. Thereafter, the reaction product was washed with a washing buffer (PBS containing 0.05% Tween 20), and a blocking buffer (PBS containing 2% skim milk and 0.05% Tween 20) was then added thereto (200 μL/well) to block it (at room temperature for 1 hour). The resultant was washed with a washing buffer. […] The mixture was left at rest at room temperature for 1 hour, and the reaction product was then washed with a washing buffer. The recombinant protein of the hTROP-2 extracellular region described in Example 3 (hTROP-2 EC) was diluted with an ELISA buffer to prepare samples with a concentration range from 5 μg/mL to a series of three-fold dilutions (10 samples). The thus obtained sample was added in each amount of 50 μL/well to the plate. The mixture was left at rest at room temperature for 1 hour, and the reaction product was then washed with a washing buffer. […] The obtained mixture was left at rest at room temperature for 1 hour, and it was then washed with a washing buffer. […] The obtained mixture was left at rest at room temperature for 1 hour, and it was then washed with a washing buffer. […] Using Microplate reader Model 550 (BioRad), an absorbance at 450 nm was measured with an absorbance at 655 nm used as a reference.

[2] = molecular target: T1, recombinant protein of the hTROP-2 …; assay: antigen-coated ELISA, plate coated with 0.5 µg/ml hTROP-2 extracellular region
Procedure: Furthermore, antigen affinity was also examined by an ELISA method. ELISA was carried out using an ELISA plate which was coated with the recombinant protein of the hTROP-2 extracellular region as described in Example 3. Specifically, a 96-well plate (BD FALCON) was coated with a 50 μl/well recombinant protein of a hTROP-2 extracellular region that had been diluted with PBS to 0.5 μg/ml (at 4° C. overnight). Thereafter, the resultant was washed with a washing buffer (PBS containing 0.05% Tween 20), and a blocking buffer (PBS containing 2% skim milk and 0.05% Tween 20) was then added thereto (200 μl/well) to block it (at room temperature for 1 hour). The resultant was washed with a washing buffer. […] The obtained dilution samples were each added in an amount of 50 μl/well to the above-described ELISA plate (at room temperature for 2 hours). […] After the mixture had been washed with a washing buffer, a TMB (3,3′,5,5′-tetramethylbenzidine: SIGMA) substrate solution was added (50 μl/well) to the resultant to carry out a color reaction. Then, 1 M sulfuric acid (25 μl/well) was added to the reaction product to terminate the reaction. Using Microplate reader Model 550 (BioRad), an absorbance at 450 nm was measured with an absorbance at 655 nm used as a reference.

[3] = molecular target: T2, recombinant hTACSTD2-Fc-His protein (Creative BioMart) (human, UniProt P09758 27-274, limits assumed); assay: low-density antigen-coated ELISA, plate coated with 0.1 µg/mL hTACSTD2-Fc-His, purified antibodies; K5-70 (parental antibody); low-density ELISA, 0.1 µg/mL hTROP-2 coat
T2 construct: bought protein; also called hTROP-2 (low-density antigen-coated ELISA); not shown: Fc part of the bought fusion protein; not described; His tag
T2 sequence: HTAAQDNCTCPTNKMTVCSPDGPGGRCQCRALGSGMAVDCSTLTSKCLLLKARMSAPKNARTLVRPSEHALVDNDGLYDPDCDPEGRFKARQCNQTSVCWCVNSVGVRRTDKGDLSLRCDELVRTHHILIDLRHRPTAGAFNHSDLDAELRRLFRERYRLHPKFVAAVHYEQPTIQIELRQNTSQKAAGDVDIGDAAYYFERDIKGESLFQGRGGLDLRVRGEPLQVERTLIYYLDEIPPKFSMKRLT

[4] = molecular target: T3, peptide No. 23 of Table 11 (SEQ ID NO: 231) (human); assay: PEPSCAN/CLIPS peptide ELISA, antibody 1 µg/mL
T3 peptide: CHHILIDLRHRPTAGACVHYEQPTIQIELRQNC
Procedure: (§1) 5034 types of the synthesized peptides were covalently bound to PEPSCAN cards (455 peptides/card), and the binding of the synthesized peptides to antibodies was then analyzed by the ELISA method. […] After washing, the resultant was allowed to react with a 1000-fold diluted peroxidase-secondary antibody complex at 25° C. for 1 hour. After washing, a substrate solution (a solution containing 2,2′-azino-di-3-ethylbenzthiazoline sulfonate (ABTS) and 2 μL of 3% hydrogen peroxide solution) was added to the reaction solution, followed by a chromogenic reaction for 1 hour. The binding activity of the antibodies was quantified by photographing with a CCD camera and then performing an image analysis.

[5] = molecular target: T4, peptide No. 3 of Table 11 (SEQ ID NO: 211) (human); assay: PEPSCAN/CLIPS peptide ELISA, antibody 1 µg/mL
T4 peptide: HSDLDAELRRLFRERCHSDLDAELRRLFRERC
Procedure: as §1

[6] = molecular target: T5, peptide No. 21 of Table 11 (SEQ ID NO: 229) (human); assay: PEPSCAN/CLIPS peptide ELISA, antibody 1 µg/mL
T5 peptide: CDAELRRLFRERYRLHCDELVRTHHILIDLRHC
Procedure: as §1

[7] = molecular target: T6, peptide No. 4 of Table 11 (SEQ ID NO: 212) (human); assay: PEPSCAN/CLIPS peptide ELISA, antibody 1 µg/mL
T6 peptide: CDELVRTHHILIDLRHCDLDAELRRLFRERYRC
Procedure: as §1

[8] = molecular target: T7, peptide No. 7 of Table 11 (SEQ ID NO: 215) (human); assay: PEPSCAN/CLIPS peptide ELISA, antibody 1 µg/mL
T7 peptide: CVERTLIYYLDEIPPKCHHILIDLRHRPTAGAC
Procedure: as §1

EC50 [1]: 0.007 µg/mL
EC50 [2]: 0.027 µg/mL
EC50 [3]: 0.0114 µg/mL
B1: anti-hTROP-2 monoclonal antibody clone K5-70 (antibody, mouse IgG2a, V domains shown)
VH: QVQLQQPGAELVRPGASVKLSCKASGYTFTIYWINWVKQRPGQGLEWIGNIYPSDSYTNYNQKFKDKATLTVDKSSSTAYMQLSSPTSEDSAVYYCTRTSMADYWGQGTTLTVSS
VL: DILLTQSPAILSVSPGERVSFSCRASQSIGTSIHWYQQRTNGSPRLLIKYASESISGIPSRFSGSGSGTDFTLSINSVESEDIADYYCQQSNSWPFTFGSGTKLEIK
notes: mouse IgG2a, hybridoma FERM BP-11251; also called K5-70 antibody; mouse K5-70 antibody

EC50 [2]: 0.03 µg/mL
binding of 16-16 [4]: 524
binding of 16-16 [5]: 714
binding of 16-16 [6]: 527
binding of 16-16 [7]: 713
binding of 16-16 [8]: 626
B2: anti-hTROP-2 monoclonal antibody clone T6-16 (antibody, mouse IgG2a, V domains shown)
VH: EVQLQQSGPELVKPGASVKISCKASGYTFTDYNMHWVKQSHGKNLEWIGYIYPYNGGTGYNQRFKSRATMTVDKSSSTAYMELRSLTSDDSAVYYCAREDYGSSPSYAMDYWGQGTSVIVSS
VL: DVVMTQTPLSLPVSLGDQASISCRSSQSLVHGNGNTYLHWYLQKPGQSPKLLIYKVSNRFSGVPDRFSGSGSGTDFTLKISRVEAEDLGVYFCSQTTHVPTFGSGTKLEIK
notes: mouse IgG2a, hybridoma FERM BP-11346; also called T6-16 antibody
